Publication PMC7424196 (iScience, 2020)
Read-outs that look alike come from different tables or passages of the source.

T1: γc extracellular domain (UniProt P34902 23-263)
T1 sequence (looked up): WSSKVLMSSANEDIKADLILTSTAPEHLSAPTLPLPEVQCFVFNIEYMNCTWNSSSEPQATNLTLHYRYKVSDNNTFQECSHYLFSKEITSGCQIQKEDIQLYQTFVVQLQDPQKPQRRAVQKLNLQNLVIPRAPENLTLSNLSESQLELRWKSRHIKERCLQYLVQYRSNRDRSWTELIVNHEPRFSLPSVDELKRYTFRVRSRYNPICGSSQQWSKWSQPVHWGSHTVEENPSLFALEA

B1: IL-2Rβ extracellular domain (domain or fragment, UniProt P16297 27-240, looked up)
chain: AVKNCSHLECFYNSRANVSCMWSHEEALNVTTCHVHAKSNLRHWNKTCELTLVRQASWACNLILGSFPESQSLTSVDLLDINVVCWEEKGWRRVKTCDFHPFDNLRLVAPHSLQVLHIDTQRCNISWKVSQVSHYIEPYLEFEARRRLLGHSWEDASVLSLKQRQQWLFLEMLIPSTSYEVQVRVKAQRNNTGTWSPWSQPLTFRTRPADPMKE
B2: IL-7Rα extracellular domain (domain or fragment, UniProt P16872 21-239, looked up)
chain: ESGNAQDGDLEDADADDHSFWCHSQLEVDGSQHLLTCAFNDSDINTANLEFQICGALLRVKCLTLNKLQDIYFIKTSEFLLIGSSNICVKLGQKNLTCKNMAINTIVKAEAPSDLKVVYRKEANDFLVTFNAPHLKKKYLKKVKHDVAYRPARGESNWTHVSLFHTRTTIPQRKLRPKAMYEIKVRSIPHNDYFKGFWSEWSPSSTFETPEPKNQGGWD

Experiments:
γc extracellular domain [1] = biological target: T1, γc extracellular domain; assay: SPR
γc extracellular domain [2] = biological target: T1, γc extracellular domain; assay: SPR; remark: listed apart in the source

Binder	Kd (γc extracellular domain [1]) [µM]	Kd (γc extracellular domain [2]) [µM]	koff (γc extracellular domain [2]) [s⁻¹]	kon (γc extracellular domain [2]) [M⁻¹ s⁻¹]
B1	577 ± 40	–	–	–
B2	–	0.0373 ± 0.0004	0.000221	5930
